Data set [1] in a line: folding stability dG unfold from trypsin proteolysis; higher = more stable. The gist of the method:
(§1)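 K50 was inferred by Bayesian fitting of sequencing counts obtained after protease digestion of designed mini-proteins. Unfolding free energy was derived by comparison with a sequence-predicted unfolded-state K50 and a shared folded-state K50, for each protease or both combined. The mini-proteins were under 80 residues, had no cysteine, were carried in a PA-tagged cDNA display construct, and were kept only if AlphaFold2 dimer inter-PAE exceeded 15.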

Data set [2] can be described thus: folding stability dG unfold from chymotrypsin proteolysis; higher = more stable. The gist of the method:
as §1

The nature of data set [3]: folding stability dG unfold (combined trypsin and chymotrypsin); higher = more stable. The gist of the method: as §1

Consider 26 sequences from the supplement of paper PMC12764529.

± gives the half width of the 95% confidence interval.

Turning to “SAGGSAGGSAEKLLIVVEVDTPEQAEALAKALAALLPPGAKITVKPVEVDGKLYLVAEVELSAGGSAGGSAG [r3_92_TrROS_Hall]”, the “folding stability dG unfold” value turned out to be 3.6 ± 0.16 kcal/mol in data set [1], 3.84 ± 0.21 kcal/mol in data set [2] and 3.75 ± 0.2 kcal/mol in data set [3].
Taken in the same sequence, the figures for “SAGGSAGGSAEKRIVAKVTEVRENEDGEKTVRVRITLPNGEELEVEVRRVERVGDYLVIELSAGGSAGGSAG [r3_261_TrROS_Hall]” were 1.26 ± 0.037 kcal/mol, 1.2 ± 0.048 kcal/mol and 1.29 ± 0.089 kcal/mol.
Taken in the same sequence, the figures for “SAGGSAGGSAEPEKKYNVKVTFYNPNTGELVLEAEFPNMTIDEVKELAKKLGLEIVKIEVGSAGGSAGGSAG [r3_423_TrMRF]” were 4.37 ± 0.27 kcal/mol, 4.43 ± 0.061 kcal/mol and 4.48 ± 0.13 kcal/mol.
Taken in the same sequence, the figures for “SAGGSAGGSAERTLTITVPAAPGDIPALVAPDGSVYGIGDFEVIPGEGRVELKVTLVKPGDASAGGSAGGSA [r18_116_TrMRF]” were -0.879 ± 0.1 kcal/mol, 0.212 ± 0.032 kcal/mol and -0.0227 ± 0.051 kcal/mol.
Turning to “SAGGSAGGSAETVTITLKVKPGEKVKIVNKKTKKVFEATVKDGYLTITLPKEDITEIKIEKVSAGGSAGGSA [r18_170_TrROS_Hall]”, the “folding stability dG unfold” value stood at 1.77 ± 0.05 kcal/mol in data set [1], 2.47 ± 0.019 kcal/mol in data set [2] and 2.29 ± 0.09 kcal/mol in data set [3].
For “SAGGSAGGSAFDPGAPWIIMINIDIEVKKVEIERDPGDGKWEIKRIEITITIDIAIMPAEDMSAGGSAGGSA [r18_137_TrROS]”, the “folding stability dG unfold” value in data set [1] stood at 3.42 ± 0.39 kcal/mol; in data set [2], 4.11 ± 0.23 kcal/mol; in data set [3], 3.88 ± 0.38 kcal/mol.
Taken in the same sequence, the figures for “SAGGSAGGSAGAEELAKALAEELNVEVEVEVVEVEEPEVEVTEERRLPPAPEEVTIEEDESAGGSAGGSAGG [r11_753_TrROS_Hall]” were -0.129 ± 0.074 kcal/mol, 1.32 ± 0.092 kcal/mol and 0.939 ± 0.12 kcal/mol.
As to “SAGGSAGGSAGAEITVEYNPETNVLTVTVKVEFTLPDGTKVERTYRATINADGTITIEPESAGGSAGGSAGG [r11_911_TrROS_Hall]”, the “folding stability dG unfold” value in data set [1] came to 3.99 ± 0.27 kcal/mol; in data set [2], 5 ± 0.095 kcal/mol; in data set [3] it was 4.97 ± 0.13 kcal/mol.
As to “SAGGSAGGSAGAGSWKDALKASSNETVTIPLPPTGKTLKITFSKSDDGSWKVDIEVFPAESAGGSAGGSAGG [r11_13_TrMRF]”, the “folding stability dG unfold” value in data set [1] was 2.03 ± 0.13 kcal/mol; in data set [2], 2.18 ± 0.079 kcal/mol; in data set [3], 2.12 ± 0.15 kcal/mol.
Taken in the same sequence, the figures for “SAGGSAGGSAGAPTGFIRVRVEFVTPDGQPAEADFTVPASLVDAVFRAARETGARVSLEGSAGGSAGGSAGG [r11_603_TrMRF]” were 0.504 ± 0.1 kcal/mol, 1.65 ± 0.074 kcal/mol and 1.2 ± 0.068 kcal/mol.
Taken in the same sequence, the figures for “SAGGSAGGSAGAVFTLPDGMKITIEKNEDGTYTITIETDGKTETIEIKPGETIEIEIFPPSAGGSAGGSAGG [r11_164_TrROS_Hall]” were 2.43 ± 0.093 kcal/mol, 3.202 ± 0.03 kcal/mol and 2.91 ± 0.077 kcal/mol.
Taken in the same sequence, the figures for “SAGGSAGGSAGAVLPIKNGWVAVIHMGPDGRVTINIYPPDKPREIEIPVNEPMEIEIFPWSAGGSAGGSAGG [r11_164_TrROS]” were 2.08 ± 0.053 kcal/mol, 1.3 ± 0.058 kcal/mol and 1.78 ± 0.091 kcal/mol.
In the case of “SAGGSAGGSAGDAPPGATLTLNIELELTLKVVDPSTGELVEERKLRIPLTLTYVLDDDDLSAGGSAGGSAGG [r11_970_TrMRF]”, the results for the “folding stability dG unfold” value in data set [1], in data set [2] and in data set [3] were 3.15 ± 0.42 kcal/mol, 4.24 ± 0.13 kcal/mol and 3.8 ± 0.43 kcal/mol, respectively.
Regarding “SAGGSAGGSAGDFDIKTVKNPPGTLMIVMPDNGWIQQIKFDPKNGKFKIDEIKWIPLDDISAGGSAGGSAGG [r11_352_TrROS]”, the “folding stability dG unfold” value amounted to 0.499 ± 0.028 kcal/mol in data set [1], 0.602 ± 0.066 kcal/mol in data set [2] and 0.585 ± 0.11 kcal/mol in data set [3].
Taken in the same sequence, the figures for “SAGGSAGGSAGDFKIKDVEVERPPGRHRVEIRLPGNKKPIKIDNVPTPDDAEDAVKELLKSAGGSAGGSAGG [r11_183_TrROS]” were 0.0405 ± 0.073 kcal/mol, 0.975 ± 0.056 kcal/mol and 0.683 ± 0.1 kcal/mol.
Consider “SAGGSAGGSAGDGWRKASFIIDPNGEILEPIPLPPGVKVEVEPFPGDGMYFVEITIPPDDSAGGSAGGSAGG [r11_32_TrROS]”, for which the “folding stability dG unfold” value was -0.497 ± 0.22 kcal/mol in data set [1], 0.684 ± 0.099 kcal/mol in data set [2] and 0.378 ± 0.17 kcal/mol in data set [3].
Consider “SAGGSAGGSAGDKGYVMVTFPIEMTQYVYDPDGKPIGQHKHEMPITVMIPPNAAKKLLQASAGGSAGGSAGG [r11_620_TrROS]”, for which the “folding stability dG unfold” value came out at 0.186 ± 0.067 kcal/mol in data set [1], 0.773 ± 0.062 kcal/mol in data set [2] and 0.592 ± 0.07 kcal/mol in data set [3].
Taken in the same sequence, the figures for “SAGGSAGGSAGDKRITIWFPVPPGQPPPTLEEIADELPGFEDVDIDVEMYPNGYYRITIESAGGSAGGSAGG [r17_205_TrROS]” were 0.812 ± 0.047 kcal/mol, 1.05 ± 0.14 kcal/mol and 0.966 ± 0.078 kcal/mol.
Taken in the same sequence, the figures for “SAGGSAGGSAGDLLKEAVEEAKDSGHPNVPIRFNFPGGTIRITVKVDPKNGKVEIKVEPVSAGGSAGGSAGG [r17_475_TrROS]” were 0.674 ± 0.12 kcal/mol, 0.445 ± 0.1 kcal/mol and 0.645 ± 0.29 kcal/mol.
Taken in the same sequence, the figures for “SAGGSAGGSAGDNKPKPIKIRIESYYPNGKKQEHDFEVPDPEDLDELAKTNPGYKIDEIESAGGSAGGSAGG [r11_802_TrROS]” were -0.258 ± 0.057 kcal/mol, 0.821 ± 0.056 kcal/mol and 0.478 ± 0.12 kcal/mol.
Take “SAGGSAGGSAGDNWVIRIWWPNGKEQVFPGNLEDLLERIPPDNKDMKVEIFDPDDGKEIWSAGGSAGGSAGG [r11_353_TrROS]”: the “folding stability dG unfold” value in data set [1] stood at 1.09 ± 0.043 kcal/mol; in data set [2], 1.01 ± 0.17 kcal/mol; in data set [3] it was 1.1 ± 0.17 kcal/mol.
Taken in the same sequence, the figures for “SAGGSAGGSAGDPGERPYVEVTVRIPITPGLEIPWWIPPENMPPEDAEKFAQDIAKEFLDSAGGSAGGSAGG [r11_409_TrROS]” were 0.889 ± 0.047 kcal/mol, -0.482 ± 0.17 kcal/mol and 0.426 ± 0.11 kcal/mol.
Taken in the same sequence, the figures for “SAGGSAGGSAGDPGQELMFMWIWPWPNPDGQPWVRIFMWSVRVDDGKIKEIEPTTMWIPLSAGGSAGGSAGG [r11_35_TrROS]” were 3.08 ± 0.17 kcal/mol, 3.774 ± 0.032 kcal/mol and 3.55 ± 0.26 kcal/mol.
Taken in the same sequence, the figures for “SAGGSAGGSAGDSPSTPVLVTETFTFPVTVTAPNEGGYSTTTSTVTVTVTLEVYVSPSFPSAGGSAGGSAGG [r17_186_JUSTAS]” were 2.2 ± 0.053 kcal/mol, 2.92 ± 0.04 kcal/mol and 2.62 ± 0.061 kcal/mol.
Consider “SAGGSAGGSAGDTLILVRNEDGRLYLIRVRAYRVPGEDGSLVFEVEIVEFPSLEEALAALSAGGSAGGSAGG [r11_967_TrROS_Hall]”, for which the “folding stability dG unfold” value was 4.05 ± 0.065 kcal/mol in data set [1], 4.825 ± 0.039 kcal/mol in data set [2] and 4.66 ± 0.051 kcal/mol in data set [3].
Taken in the same sequence, the figures for “SAGGSAGGSAGEEVILRIKVKLKNGEERTIEINMTLDELLAELPENVTEIKIEAIPKEDLSAGGSAGGSAGG [r11_596_TrROS_Hall]” were 1.29 ± 0.052 kcal/mol, 1.54 ± 0.017 kcal/mol and 1.46 ± 0.079 kcal/mol.
